# Test results: patent publication US20040170601A1, “Method of improving the growth performance of an animal” (priority 2001, published 2004)
# “Also recorded” adds a separate entry of the source.
# B1: interleukin 5 (protein, UniProt Q9MYM5 22-134, looked up)
# Interleukin-5: VENTMNRLVAETLTLLSIHRTLLIGDGNLMISTPVHTNHQLCIEEVFQGIDTLKNQTARGDAVEKLFQNLSLIKEYIDRQKKNCGGERWRVTQFLDYLQVFLGVINTEWTMES
# notes: recombinant porcine IL-5 protein expressed in E. coli; + / − = with / without antibiotic medicated feed and water, +p = weaner period only
# Tests used:
# [1] = test system: haemorrhagic E. coli; assay: Example 6: haemorrhagic E. coli challenge of weaner pigs; assay type: in vivo; set-up: decrease in faecal shedding (total faecal culture scores) compared to saline treated controls / reduction in clinical signs compared to saline controls / reduction in E. coli culture scores at post-mortem compared to saline controls / reduction of bacterial load in the small intestine (foregut) compared with saline controls: concentration or dose not given beside the values
# Experimental: Male weaner pigs, with a mean weight of 5.4 kg were allocated to groups of 8, with the mean weight being equalised between groups. Pigs were housed in group pens. Pigs were provided with pelleted feed and water ad libitum.
# Pigs were treated with cytokines or the antibiotic, Apralan, and challenged with E. coli according to the schedule outlined in FIG. 42. E. coli were delivered orally in an 8 ml dose containing 10^8 cfu/ml. Blood was sampled from pigs by venipuncture at −2 days, day 0, and +6 days from initial challenge with E. coli as outlined in FIG. 42. Blood was assayed for immunological parameters as previously described. Pigs were weighed at day −2 and at the end of the trial on day 7.
# Faecal samples were taken from each pig daily from day 2 to day 6 after challenge; these samples were cultured on sheep blood agar to quantify E. coli load. The condition of faeces on each day of challenge was noted as normal, wet or diarrhoea, as an indication of clinical signs.
# At the conclusion of the experiment, pigs were euthanased and samples were taken from different areas in the gastro-intestinal tract, including the small intestine (25%, 50% and 75% along the length of the small intestine), the caecum and colon, and from the faeces. These post-mortem samples were also plated out on sheep blood agar to quantify E. coli load. Growth on sheep blood agar was scored from 0 to 5 (where 0 was no growth, 1 signified growth in the primary inoculum, 2 signified growth in the first streak, 3 signified growth in the 2nd streak, 4 signified growth in the 3rd streak, and 5 signified growth of E. coli in the final streak), and group means and standard errors were calculated.
# [2] = Example 5: repeat growth performance trial of IL-5 with normal, reduced and no antibiotics; assay type: in vivo, pigs
# Experimental: This trial repeats the evaluation of IL-5 to improve growth performance and/or immunity of pigs by comparing the growth rate and health of male and female weaner pigs (from 28 days old: Week 0 of the trial) through the weaner (Weeks 0-6), grower (Weeks 6-13) and finisher (Weeks 13-19) stages to slaughter (Week 19), which were administered with recombinant porcine cytokine IL-5, and saline was used as a control, with and without standard weaner medicated water and feed, and reduced antibiotics, in a commercial piggery environment.
# This trial (weaner/grower/finisher trial) was designed to investigate the effect of providing IL-5 and the controls (saline) from weaning to slaughter with normal, reduced and no antibiotics in water supply. The experiment evaluates the capacity of IL-5 for replacing antibiotics under commercial pig rearing conditions and to determine the effect of continuous administration of the cytokines throughout the life of the pig on performance and carcass characteristics.
# The experiment was undertaken in a commercial environment where the pigs were weaned at 28 days of age. All injections were 1 ml. There were 16 pigs per treatment, 8 males and 8 females per treatment. The overall weight of pigs in each treatment was similar at the start of the experiment.
# −means no antibiotic supplements in water or feed throughout trial.
# 0.5 means single antibiotics used throughout trial at normal dose
# + means normal antibiotic regime used throughout trial IL-5+ means IL-5 administered during Weaner/Grower/Finisher periods.
# IL-5+p means IL-5 administered during Weaner period only.
# A. Saline injection, 1 ml IM neck muscle.
# B. 100 μg IL-5 injection, 1 ml IM neck muscle.
# Weaner stage: 2 injections per week,
# Grower and finisher stage 1 injection per week.
# Pigs were weaned and weighted at the start of the experiment (D0, W0) and weekly until the end of the weaner period (W6), at the end of the grower (W13) and finisher (W19) stages and once during the grower (W9) and finisher (W16) stages. Blood and sera samples were collected at the start (before treatments) and end of the weaner, grower and finisher periods. Blood and sera were taken prior to treatment injection. Haematology (totals and differentials) was performed.
# At the start of the trial, the mean weight and the variance of all groups was equalised to reduce confounding influence of starting weight. Thus, the positive effects on growth were due to treatment effects.
# [3] = test system: Brachyspira (Serpulina) hyodysenteriae; assay: Example 7: swine dysentery challenge, IL-5 prophylactic; assay type: in vivo, pigs; set-up: reduction in the number of spirochaetes compared to saline treated pigs: concentration or dose not given beside the values
# Text: One aim of this example was to determine whether IL-5 could improve the health of pigs infected with an enteric inflammatory pathogen causing swine dysentery, Brachyspira (Serpulina) hyodysenteriae. A further aim was to determine whether IL-5 could improve the growth rate of pigs under conditions of challenge with swine dysentery.
# Male pigs with a mean starting weight of 6.5 kg, were allocated to treatment groups consisting of eight pigs (Table 6). Pigs were housed in group pens, with each pen containing a replicate from each of the treatment groups. One group of 8 pigs was housed in a separate room and left uninfected to act as untreated controls. Pigs were provided with pelleted feed and water ad libitum.
# Prior to swine dysentery challenge, pigs were treated with recombinant IL-5 or saline, as described in Table 6. Cytokines and the antibiotic, Lincomycin, were delivered by intramuscular injection at intervals outlined in Table 7. Pigs were infected with Brachyspira hyodysenteriae at day 0, day 1 and day 2, given as an oral bolus of 120 ml of spirochaete culture in log phase of growth, containing approximately […].
# Faecal swabs and blood samples were taken from each pig at intervals described in Table 7. Faecal swabs were cultured for the presence of spirochaetes. Blood samples were assayed for immunological parameters as described in example 1 above. Pigs were weighed at weekly intervals throughout the experiment, which was terminated by euthanasia on days 19 and 20 after the initial challenge. At post mortem swabs from areas of the hindgut were cultured for the presence of spirochaetes, and the gross pathological condition of the gastro-intestinal tissue noted.
# [4] = test system: eosinophils; assay: Example 3: mode of administration of IL-5 (protein or DNA) on eosinophils; assay type: in vivo, pigs; conditions: six times over 2 weeks
# Experimental: This trial compared the delivery of IL-5 as recombinant protein or by DNA using different routes of administration. Each treatment was administered six times over 2 weeks (Days 0, 1, 3, 6, 8, 10).
# 6 pigs/treatment group. Blood haematology measured.
# The experiment was conducted using medicated feed Barastoc EziWean 150 then Bunge Grolean CREEP ad libitum in an experimental environment (PC2 containment facilities).
# Blood total and differential counts were performed using a CellDyn 3700 haematology machine.
# [5] = 2nd trial, normal medication, weaner period
# [6] = normal antibiotics, IL-5 during weaner, grower, finisher periods
molecule,measurement,setting,value
B1,clinical signs (wet faeces or diarrhoea),[1]; 5 days after challenge,fewer recorded cases of wet faeces and diarrhoea than saline controls or Apralan treatment
same,E. coli shedding in faeces (faecal culture),[1]; day 2 to day 6 after challenge,decreased E. coli shedding in faeces
same,decrease in faecal shedding (total faecal culture scores) compared to saline treated controls,[1]; entire challenge period,43%
same,reduction in E. coli culture scores at post-mortem compared to saline controls,[1]; gastro-intestinal tract total,15%
same,appetite (daily feed intake per pig) during E. coli challenge,"[1]; pig, in vivo",improved appetite compared to saline treated pigs
same,bacterial load in areas of the gastro-intestinal tract at post-mortem,"[1]; pig, in vivo",reduced bacterial load in most areas of the gastro-intestinal tract
same,days after challenge with bacterial shedding significantly less than saline treated controls,"[1]; pig, in vivo",3/5
same,group mean total E. coli culture score at post-mortem (out of a possible 30),"[1]; pig, in vivo",less than 15
same,reduction in clinical signs compared to saline controls,"[1]; pig, in vivo",64%
same,reduction of bacterial load in the small intestine (foregut) compared with saline controls,[1]; post-mortem,36%
same,increase in average weights over medicated saline control,[2]; [5],7%
same,increase in weight gain over medicated saline control,[2]; [5],11%
same,"total group weights, weaner period","[2]; no, reduced or normal antibiotics","beneficial effects on total weights, especially with reduced or no antibiotic supplements"
same,"average weight increases, weaner-only vs continuous IL-5",[2]; normal antibiotics,"no significant differences between groups given IL-5 during the weaner or continuously throughout the weaner, grower and finisher periods"
same,change of final average weight vs saline control,[2]; [6],~−1.5%
same,decrease of final average weight vs saline control,[2]; [6],1.3 kg
same,average weights,"[2]; normal antibiotics, W6 to W13",consistently higher average weights than the saline control (with normal antibiotics) from the end of the weaner period (W6) to the end of the grower period (W13)
same,average weight higher than IL-5+p,"[2]; normal antibiotics, Week 13",1.3 kg
same,average weight higher than saline control,"[2]; normal antibiotics, Week 13",4.7 kg
same,average weight lower than IL-5+p,"[2]; normal antibiotics, Week 19",2 kg
same,average weight lower than saline control,"[2]; normal antibiotics, Week 19",1.3 kg
same,average weight gains during the Weaner period,"[2]; vs respective saline controls, with or without antibiotic supplements",consistently higher average weight gains during the Weaner period compared to the respective saline controls with or without antibiotic supplements in water or feed
same,average weight gains during the Weaner period,[2]; vs saline controls without antibiotic supplements,consistently higher average weight gains during the Weaner period
same,spirochaete shedding in faeces (faecal culture),[3]; after challenge,decreasing levels of spirochaete shedding by day 14 after challenge
same,reduction in the number of spirochaetes compared to saline treated pigs,"[3]; anterior colon, post mortem",63%
same,reduction in the number of spirochaetes compared to saline treated pigs,"[3]; caecum, post mortem",60%
same,reduction in the number of spirochaetes compared to saline treated pigs,"[3]; faecal, post mortem",68%
same,number of spirochaetes cultured from the hindgut at post mortem,"[3]; pig, in vivo",reduced the number of spirochaetes residing in the gut compared to saline controls; also recorded: comparable to that shown by the Lincocin antibiotic
same,incidence of clinical signs in faeces (of 8 pigs),[3]; post mortem,3 pigs
same,reduction in the number of spirochaetes compared to saline treated pigs,"[3]; posterior colon, post mortem",47%
same,circulating eosinophil numbers (percentage of WBC),"[4]; 100 μg rec.IL-5 IM hind leg, listed as Recombinant IL-5",elevated circulating eosinophil numbers
same,circulating eosinophil numbers (percentage of WBC),"[4]; 100 μg rec.IL-5 IM hind leg, listed as recombinant IL-5",increase in the duration and level of eosinophils in blood
same,circulating eosinophil numbers (percentage of WBC),[4]; 100 μg rec.IL-5 intranasal spray,slight increases on eosinophil numbers compared to the DNA control but not statistically significant
